Results on three substances are retold here after patent publication US20190225658A1.

Experiment [1] has as its target Kir3.1/Kir3.4 channel. Description: cell-based or functional assay.
Experiment [2] has as its target Kir3.1/Kir3.4 channel. Description: flow cytometry dose response curve of binding on HEK cells stably transfected with Kir3.1/3.4. (In flow cytometry, cells or beads pass a laser one at a time.)
For experiment [3], the target named is Kir3.1/Kir3.4 channel. Description: flow cytometry, HEK cells stably transfected with Kir3.1/3.4, labeled with 10 nM; unlabeled cells 162 A.U.
Sequence of Kir3.1/Kir3.4 channel (P48549 whole entry, chain 1 of 2): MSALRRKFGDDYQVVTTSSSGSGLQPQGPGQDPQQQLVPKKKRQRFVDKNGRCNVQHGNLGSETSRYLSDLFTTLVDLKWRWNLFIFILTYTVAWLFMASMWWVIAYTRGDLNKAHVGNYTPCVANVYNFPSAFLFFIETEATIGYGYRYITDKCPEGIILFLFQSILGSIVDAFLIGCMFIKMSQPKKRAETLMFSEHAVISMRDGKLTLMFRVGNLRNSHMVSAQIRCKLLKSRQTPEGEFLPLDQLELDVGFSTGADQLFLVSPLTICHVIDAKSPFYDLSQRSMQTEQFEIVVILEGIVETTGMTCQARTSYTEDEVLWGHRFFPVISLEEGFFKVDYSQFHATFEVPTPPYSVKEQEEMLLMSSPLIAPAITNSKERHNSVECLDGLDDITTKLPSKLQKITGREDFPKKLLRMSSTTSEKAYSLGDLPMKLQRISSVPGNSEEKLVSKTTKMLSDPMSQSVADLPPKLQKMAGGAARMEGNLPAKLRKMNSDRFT
Sequence of Kir3.1/Kir3.4 channel (P48544 whole entry, chain 2 of 2, further chain): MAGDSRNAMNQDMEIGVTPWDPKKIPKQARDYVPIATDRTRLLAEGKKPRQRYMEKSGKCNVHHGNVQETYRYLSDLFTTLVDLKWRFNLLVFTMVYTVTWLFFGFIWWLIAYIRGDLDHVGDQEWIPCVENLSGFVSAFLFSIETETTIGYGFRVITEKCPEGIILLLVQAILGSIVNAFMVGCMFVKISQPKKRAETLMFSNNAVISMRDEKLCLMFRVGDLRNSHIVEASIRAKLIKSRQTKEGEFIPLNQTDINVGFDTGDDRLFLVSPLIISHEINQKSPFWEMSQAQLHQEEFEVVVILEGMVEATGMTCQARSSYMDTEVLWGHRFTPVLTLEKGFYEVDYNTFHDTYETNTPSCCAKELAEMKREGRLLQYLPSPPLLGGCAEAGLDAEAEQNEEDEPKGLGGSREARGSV

For orientation: IC50 means the concentration needed to halve the response being measured.

In the experiment with Kir3.1/Kir3.4 channel [1], TertiapinQ (peptide) yielded an IKACh block, patch clamp, dose response curve of 70 nM.

For “TertiapinQ labeled with ATT0633 (peptide)”, the IC50 in the experiment with Kir3.1/Kir3.4 channel [2] worked out at 11 nM. In the experiment with Kir3.1/Kir3.4 channel [3], this substance gave a median fluorescence of 3840 A.U.

TertiapinQ peptibody (Fc fusion) showed an IKACh block, patch clamp, dose response curve with Kir3.1/Kir3.4 channel [1] of 16 nM.
